According to patent US20200362034A1 (KINDRED BIOSCIENCES, published 2020):

Columns and labels:
[1] = molecular target: human glucagon ligand peptide-1 receptor (GLP1R) (human, UniProt P43220 24-463); experiment: cell-based or functional assay
FeGLP1R-N-huFc_PolyHis = FeGLP1R-N-huFc_PolyHis (feline, biotinylated (sites not given) in the Octet assay); experiment: biolayer interferometry (Octet); biotinylated FeGLP1R-N-huFc_PolyHis on streptavidin tips; 1:1 fit
Description: Briefly, FeGLP1R-N-huFc_PolyHis was biotinylated, the free unreacted biotin was removed, and the biotinylated protein was captured to streptavidin sensor tips. […] Dissociation was monitored for 600 seconds. A buffer only blank curve was subtracted to correct for any drift. […] The buffer for dilutions and all binding steps was: 20 mM phosphate, 150 mM NaCl, pH 7.2.

Chain of FeGLP1R-N-huFc_PolyHis (feline, biotinylated (sites not given) in the Octet assay) (chain, as listed by the source): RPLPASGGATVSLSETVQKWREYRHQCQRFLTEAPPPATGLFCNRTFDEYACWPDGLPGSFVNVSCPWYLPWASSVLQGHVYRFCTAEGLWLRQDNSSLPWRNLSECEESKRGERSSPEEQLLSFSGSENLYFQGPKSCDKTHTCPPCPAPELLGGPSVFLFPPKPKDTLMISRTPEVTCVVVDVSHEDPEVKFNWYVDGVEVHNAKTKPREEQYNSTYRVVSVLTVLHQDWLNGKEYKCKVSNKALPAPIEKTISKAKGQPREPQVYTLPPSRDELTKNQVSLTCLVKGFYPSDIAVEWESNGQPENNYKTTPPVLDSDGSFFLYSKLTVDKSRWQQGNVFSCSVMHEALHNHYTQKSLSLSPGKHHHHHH

B1: GLP1-G8/GLP1-2G_III_VARfeIgG2 (Fc fusion)
chain: HGEGTFTSDVSSYLEGQAAKEFIAWLVKGGGGSGGGGSGGGGSGGGGSPKTASTIESKTGECPKCPVPEIPGAPSVFIFPPKPKDTLSISRTPEVTCLVVDLGPDDSNVQITWFVDNTEMHTAKTRPREEQFNSTYRVVSVLPILHQDWLKGKEFKCKVNSKSLPSAMERTISKAKGQPHEPQVYVLPPTQEELSENKVSVTCLIKGFHPPDIAVEWEITGQPEPENNYQTTPPQLDSDGTYFLYSRLSVDRSHWQRGNTYTCSVSHEALHSHHTQKSLTQSPGKGGGGSGGGGHAEGTFTSDVSSYLEGQAAKEFIAWLVKGGG
[1]
  EC 50 (nM), cAMP Hunter bioassay on CHO-K1 cells overexpressing human GLP1R: 0.0175 nM

B2: GLP1-G8_I_VARfeIgG2 (Fc fusion)
chain: HGEGTFTSDVSSYLEGQAAKEFIAWLVKGGGGSGGGGSGGGGSGGGGSPKTASTIESKTGECPKCPVPEIPGAPSVFIFPPKPKDTLSISRTPEVTCLVVDLGPDDSNVQITWFVDNTEMHTAKTRPREEQFNSTYRVVSVLPILHQDWLKGKEFKCKVNSKSLPSAMERTISKAKGQPHEPQVYVLPPTQEELSENKVSVTCLIKGFHPPDIAVEWEITGQPEPENNYQTTPPQLDSDGTYFLYSRLSVDRSHWQRGNTYTCSVSHEALHSHHTQKSLTQSPGK
notes: Formula I contiguous polypeptide made in CHO cells; The Fc chains pair through hinge disulfides; also called GLP1 MB variant; GLP1-B
[1]
  EC 50 (nM), cAMP Hunter bioassay on CHO-K1 cells overexpressing human GLP1R: 0.0281 nM
FeGLP1R-N-huFc_PolyHis
  Kd: 8 to 16 nM
